Source: patent US6033847, “InK4c-p18 and InK4d-p19, inhibitors of cyclin-dependent kinases CDK4 and CDK6, and uses thereof” (St. Jude Children's Research Hospital, dated 2000)

T1: cyclin D3 (Mus musculus (Mouse), UniProt P30282)
T1 sequence: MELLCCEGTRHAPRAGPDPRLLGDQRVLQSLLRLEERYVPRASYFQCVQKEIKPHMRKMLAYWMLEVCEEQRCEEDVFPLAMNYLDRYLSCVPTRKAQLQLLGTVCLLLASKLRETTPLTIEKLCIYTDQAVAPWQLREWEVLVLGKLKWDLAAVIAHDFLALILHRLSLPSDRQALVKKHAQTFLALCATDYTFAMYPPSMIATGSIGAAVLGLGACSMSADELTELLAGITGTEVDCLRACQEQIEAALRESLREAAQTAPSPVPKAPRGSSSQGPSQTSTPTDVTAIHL


Key:
mouse CDK5 = mouse CDK5 (mouse, UniProt P49615); experiment: GST pull-down of 35S-labelled in vitro translated CDKs
Experimental: (§1) Equal aliquots of the "input" samples shown in lanes 1–6 were incubated with control beads (lanes 7–12) (i.e., GST-Sepharose; GST=glutathione S-transferase) or with beads containing a GST-p19 fusion protein (lanes 13–18), after which the beads were washed, and adsorbed radiolabeled products were separated on gels and autoradiographed. In Panel B, the experiments were performed as in panel A, except that radiolabeled cyclins D2 and D3 were substituted for cdk gene products; the cdk4 gene product was used as a positive control. All autoradiographic exposure times were 15 hrs.
(§2) Human InK4 polypeptides specifically bind to the cyclin D-dependent catalytic subunits, CDK4 and CDK6 (5,18,45). To study the interactions of mouse p19 and p18 with CDKs, cDNAs encoding CDC2 (CDK1) and CDKs 2–6 were transcribed and translated in vitro, and the radiolabeled products were mixed with GST-tagged p19 and p18 fusion proteins adsorbed to glutathione-Sepharose beads or to GST-Sepharose beads as a control.
(§3) Plasmids derived from pBluescript and containing the entire coding sequences of the mouse cdk2, cdk4, cdk5, or cdk6 genes (Matsuoka et al., Mol. Cell. Biol. 14:7265–7275 (1994); Matsushime et al., Cell 71:323–334 (1992)) or human cdc2/cdk1 or cdk3 genes (provided by Drs. Matthew Meyer-son and Edward Harlow (MGH Cancer Center, Cambridge, Mass.)) were transcribed and translated in vitro (Matsuoka et al., Mol. Cell. Biol. 14:7265–7275 (1994)). Mouse cdk6 cDNA was cloned from a mouse macrophage library (Stratagene, La Jolla, Calif.) by screening with a full-length human cdk6 clone (also provided by M. Meyerson and E. Harlow). Following transcription and translation, rabbit reticulocyte lysates containing ^35S-methionine labeled CDKs (20–40 ul) were diluted to 0.5 ml in IP kinase buffer (50 mM Hepes, pH 7.5, containing 150 mM NaCl, 1 mM EDTA, 1 mM DTT, 0.1% Tween-20) containing 10 mg/ml BSA and mixed with 1 ug of purified GST or GST-p19 immobilized on glutathione-Sepharose beads. After 2 hours of incubation at 4° C., beads were collected by centrifugation, washed 4 times in IP kinase buffer, and the bound proteins were denatured and analyzed by electrophoresis on 12.5% polyacrylamide gels containing SDS (Anderson, S. J., et al., J. Virol. 51:730–741 (1984)).

human CDC2 (CDK1) = human CDC2 (CDK1) (human, UniProt P06493); experiment: as above
Experimental: as §1, §2, §3

mouse CDK2 = mouse CDK2 (mouse, UniProt P97377-2); experiment: as above
Experimental: as §1, §2, §3

cyclin D2 = cyclin D2 (Mus musculus (Mouse), UniProt P30280); experiment: GST pull-down of radiolabelled cyclins D2 and D3
Experimental: as §1, with “Panel A is an autoradiograph of aliquots of the ^35S-methionine-labeled products, derived from the in vitro transcription and translation of plasmids containing CDNA coding sequences of the cdc or cdk gene indicated in the legend below lanes 1–6, separated by electrophoresis on denaturing polyacrylamide gels. Equal” for “Equal”
as §3

cyclin D3 = biological target: T1, cyclin D3; experiment: GST pull-down of radiolabelled cyclins D2 and D3
Experimental: as §1, with “Panel A is an autoradiograph of aliquots of the ^35S-methionine-labeled products, derived from the in vitro transcription and translation of plasmids containing CDNA coding sequences of the cdc or cdk gene indicated in the legend below lanes 1–6, separated by electrophoresis on denaturing polyacrylamide gels. Equal” for “Equal”
as §3

[1] = biological target: cyclin D1 (endogenous, murine BAC1.2F5 macrophages) (mouse, UniProt P25322); experiment: co-immunoprecipitation from lysates of proliferating mouse cells with antiserum to the p19 C-terminus

Row | Binder | binding result (mouse CDK5) | binding result (human CDC2 (CDK1)) | binding result (mouse CDK2) | binding result (cyclin D2) | binding result (cyclin D3) | binding result [1]
1 | GST-p19 fusion protein (glutathione S-transferase fused to mouse InK4d-p19) (other) MLLEEVCVGDRLSGARARGDVQEVRRLLHRELVHPDALNRFGKTALQVMMFGSPAVALELLKQGASPNVQDASGTSPVHDAARTGFLDTLKVLVEHGADVNALDSTGSLPIHLAIREGHSSVVSFLAPESDLHHRDASGLTPLELARQRGAQNLMDILQGHMMIPM | no binding (tested: 1 ug on beads) | no binding (tested: 1 ug on beads) | no binding (tested: 1 ug on beads) | no binding | no binding | –
2 | GST-p18 fusion protein (glutathione S-transferase fused to mouse InK4c-p18) (other) MAEPWGNELASAAARGDLEQLTSLLQNNVNVNAQNGFGRTALQVMKLGNPEIARRLLLRGANPNLKDGTGFAVIHDAARAGFLDTVQALLEFQADVNIEDNEGNLPLHLAAKEGHLPVVEFLMKHTACNVGHRNHKGDTAFDLARFYGRNEVISLMEANGVGGATSLQ | no binding | no binding | no binding | no binding | no binding | –
3 | mouse InK4d-p19 (other) MLLEEVCVGDRLSGARARGDVQEVRRLLHRELVHPDALNRFGKTALQVMMFGSPAVALELLKQGASPNVQDASGTSPVHDAARTGFLDTLKVLVEHGADVNALDSTGSLPIHLAIREGHSSVVSFLAPESDLHHRDASGLTPLELARQRGAQNLMDILQGHMMIPM | – | – | – | – | – | no binding
